# Assay results: patent EP1260521B1
# B1: MaE 11 (antibody, from another filing, mouse IgG1, V domains shown)
# VH: DVQLQESGPGLVKPSQSLSLACSVTGYSITSGYSWNWIRQFPGNKLEWMGSITYDGSSNYNPSLKNRISVTRDTSQNQFFLKLNSATAEDTATYYCARGSHYFGHWHFAVWGAGTTVTVSS
# VL: DIVLTQSPASLAVSLGQRATISCKASQSVDYDGDSYMNWYQQKPGQPPILLIYAASYLGSEIPARFSGSGSGTDFTLNIHPVEEEDAATFYCQQSHEDPYTFGAGTKLEIK
# B2: MaE 15 (antibody, from another filing, mouse IgG1, V domains shown)
# VH: DVQHQESEPDLVKPSQSLSLTCTVTGYSITSGYNRHWIRQFPGNKLEWMGYIHYSGSTNYNPSLKRRISITRDTSKNQFFLQLNSVTTEDTATYYCARGSIYYYGSRYRYFDVWGAGTTVTVSS
# VL: DIQLTQSPASLAVSLGQRATISCKASQSVDYDGDSYMNWYQQKPGQPPKLLIYAASNLESGIPARFSGSGSGTDFTLNIHPVEEEDAATYYCQQSNEDPFTFGAGT
# B3: MaE 13 (antibody, from another filing, mouse IgG1, V domains shown)
# VH: DVQLQESGPGLVKPSQSLSLTCTVTGYTITSDNAWNWIRQFPGNKLEWMGYINHSGTTSYNPSLKSRISITRDTSKNQFFLQLNSVTTEDTATYYCAWVVAYAMDYWGQGTSVTVSS
# VL: DIVMTQSQKFMSTSVGDRVSVTCKASQNVSSNVAWYQQKPGQSPKALIYSASYRYSGVPDRFTGSGSGTDFTLTISNVQSEDLAEYFCQQYYTYPLYTFGGGTKLEIKR
# Assays:
# [1] = molecular target: FCEH-bound IgE (human IgE loaded on FcERI alpha) (human) (UniProt P01854); test: cell-based or functional assay
# [2] = molecular target: membrane IgE on U266 B1 cells (human) (UniProt P01854); test: FACS on U266 B1 cells
# human IgE (human) = human IgE (human) (UniProt P01854); test: 50% inhibition assay of IgE binding to FCEH
Binder,PBL Histamine Release (EC50) [1],EC50 [2],IC50 (human IgE (human)),Var. X / IgL1H1 (human IgE (human)),Var. X / MaE11 (human IgE (human))
B1,> 100 µg/mL,0.15 µg/mL,0.449 µg/mL,0.06,1
B2,> 100 µg/mL,6 µg/mL,,,
B3,> 10 µg/mL,1 µg/mL,,,
